Data on four molecules can be found in US20090099029A1, “Methods and substrates for conducting assays” (Invitrogen Corporation, priority 2005, published 2009).

B1: PHKG2 (protein)
chain: MTLDVGPEDELPDWAAAKEFYQKYDPKDVIGRGVSSVVRRCVHRATGHEFAVKIMEVTAERLSPEQLEEVREATRRETHILRQVAGHPHIITLIDSYESSSFMFLVFDLMRKGELFDYLTEKVALSEKETRSIMRSLLEAVSFLHANNIVHRDLKPENILLDDNMQIRLSDFGFSCHLEPGEKLRELCGTPGYLAPEILKCSMDETHPGYGKEVDLWACGVILFTLLAGSPPFWHRRQILMLRMIMEGQYQFSSPEWDDRSSTVKDLISRLLQVDPEARLTAEQALQHPFFERCEGSQPWNLTPRQRFRVAVWTVLAAGRVALSTHRVRPLTKNALLRDPYALRSVRHLIDNCAFRLYGHWVKKGEQQNRAALFQHRPPGPFPIMGPEEEGDSAAITEDEAVLVLG
modifications: left off: small tags and cut ends
B2: EPHA8 (protein)
chain: KKRHCGYSKAFQDSDEEKMHYQNGQAPPPVFLPLHHPPGKLPEPQFYAEPHTYEEPGRAGRSFTREIEASRIHIEKIIGSGDSGEVCYGRLRVPGQRDVPVAIKALKAGYTERQRRDFLSEASIMGQFDHPNIIRLEGVVTRGRLAMIVTEYMENGSLDTFLRTHDGQFTIMQLVGMLRGVGAGMRYLSDLGYVHRDLAARNVLVDSNLVCKVSDFGLSRVLEDDPDAAYTTTGGKIPIRWTAPEAIAFRTFSSASDVWSFGVVMWEVLAYGERPYWNMTNRDVISSVEEGYRLPAPMGCPHALHQLMLDCWHKDRAQRPRFSQIVSVLDALIRSPESLRATATVSRCPPPAFVRSCFDLRGGSGGGGGLTVGDWLDSIRMGRYRDHFAAGGYSSLGMVLRMNAQDVRALGITLMGHQKKILGSIQTMRAQLTSTQGPRRHL
modifications: left off: a dimerising Fc or GST
B3: PAK6 (protein)
chain: MFRKKKKKRPEISAPQNFQHRVHTSFDPKEGKFVGLPPQWQNILDTLRRPKPVVDPSRITRVQLQPMKTVVRGSAMPVDGYISGLLNDIQKLSVISSNTLRGRSPTSRRRAQSLGLLGDEHWATDPDMYLQSPQSERTDPHGLYLSCNGGTPAGHKQMPWPEPQSPRVLPNGLAAKAQSLGPAEFQGASQRCLQLGACLQSSPPGASPPTGTNRHGMKAAKHGSEEARPQSCLVGSATGRPGGEGSPSPKTRESSLKRRLFRSMFLSTAATAPPSSSKPGPPPQSKPNSSFRPPQKDNPPSLVAKAQSLPSDQPVGTFSPLTTSDTSSPQKSLRTAPATGQLPGRSSPAGSPRTWHAQISTSNLYLPQDPTVAKGALAGEDTGVVTHEQFKAALRMVVDQGDPRLLLDSYVKIGEGSTGIVCLAREKHSGRQVAVKMMDLRKQQRRELLFNEVVIMRDYQHFNVVEMYKSYLVGEELWVLMEFLQGGALTDIVSQVRLNEEQIATVCEAVLQALAYLHAQGVIHRDIKSDSILLTLDGRVKLSDFGFCAQISKDVPKRKSLVGTPYWMAPEVISRSLYATEVDIWSLGIMVIEMVDGEPPYFSDSPVQAMKRLRDSPPPKLKNSHKVSPVLRDFLERMLVRDPQERATAQELLDHPFLLQTGLPECLVPLIQLYRKQTSTC
modifications: left off: small tags and cut ends
B4: PLK3 (protein)
chain: SGRTYLKGRLLGKGGFARCYEATDTETGSAYAVKVIPQSRVAKPHQREKILNEIELHRDLQHRHIVRFSHHFEDADNIYIFLELCSRKSLAHIWKARHTLLEPEVRYYLRQILSGLKYLHQRGILHRDLKLGNFFITENMELKVGDFGLAARLEPPEQRKKTICGTPNYVAPEVLLRQGHGPEADVWSLGCVMYTLLCGSPPFETADLKETYRCIKQVHYTLPASLSLPARQLLAAILRASPRDRPSIDQILRHDFFTKGYTPDRLPISSCVTVPDLTPPNPA
modifications: left off: a dimerising Fc or GST

This series concerns kinases of Table 6 on Myelin Basic Protein (MBP). Description: Kinase assay using MBP substrate, ProQ Diamond stain (Table 6). Type of series: biochemical. Conditions: kinase printed on MBP-coated slide; 20 uM ATP, 30° C.; ProQ Diamond Microarray Stain; graded Strong/Weak/Negative. The procedure, abridged:
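Bovine dephosphorylated MBP coated on aldehyde- or epoxy-glass slides, kinases printed on top; reaction buffer pH 7.5 with 4 mM MgCl2, 20 uM ATP, 5% DMSO, ± inhibitor, at 30° C. Phosphorylation detected by ProQ Diamond stain, 30 min in dark.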
Regarding B1, the “MBP Kinase Activity” value is listed as “Negative”. Under B2 stands “Weak”; under B3, “Negative”; under B4, “Negative”.
